Molecular target: T1, human ILT5 on the surface of peripheral blood cells (PBMC subsets, APCs) (human, UniProt O75022 24-631)
T1 construct: whole, on cells; also called surface ILT5; Immunoglobulin-like transcript 5
Test: flow cytometry, staining of human PBMCs
Description: Peripheral blood mononuclear cells (PBMCs) from healthy human blood donors were stained with a murine monoclonal antibody (TRX585) comprising a heavy chain variable region comprising the amino acid sequence of SEQ ID NO: 2 or SEQ ID NO: 3, and a light chain variable region comprising the amino acid sequence of SEQ ID NO: 1. Sequencing analysis of the heavy chain variable region was inconclusive as to whether the first amino acid residue was D or E. As the two amino acids are very similar and the first residue is not in a CDR, it is highly likely that VH with D or E at the first position would have very similar if not the same ILT5-binding properties. PBMCs were also stained with antibodies specific for defined hematopoietic cell lineages and analyzed for ILT5 expression by flow cytometry.

T1 sequence (O75022 24-631): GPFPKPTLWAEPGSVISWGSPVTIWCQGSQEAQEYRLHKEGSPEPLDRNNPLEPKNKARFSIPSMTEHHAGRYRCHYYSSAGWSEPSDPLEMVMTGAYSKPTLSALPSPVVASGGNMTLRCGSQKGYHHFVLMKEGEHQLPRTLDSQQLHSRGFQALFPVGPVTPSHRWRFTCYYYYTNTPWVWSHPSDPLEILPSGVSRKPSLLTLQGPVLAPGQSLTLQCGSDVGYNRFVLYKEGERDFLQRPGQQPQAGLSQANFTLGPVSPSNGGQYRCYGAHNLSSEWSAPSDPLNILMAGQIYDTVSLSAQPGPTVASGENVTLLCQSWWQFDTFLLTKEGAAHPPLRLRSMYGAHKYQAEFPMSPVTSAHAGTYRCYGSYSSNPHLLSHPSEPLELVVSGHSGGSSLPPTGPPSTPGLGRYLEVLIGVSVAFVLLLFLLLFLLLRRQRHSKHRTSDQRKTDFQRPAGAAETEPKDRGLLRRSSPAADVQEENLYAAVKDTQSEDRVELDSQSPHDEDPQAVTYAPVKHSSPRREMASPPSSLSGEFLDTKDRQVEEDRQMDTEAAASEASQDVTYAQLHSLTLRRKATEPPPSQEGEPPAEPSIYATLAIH

B1: TRX585 mouse anti-human ILT5 monoclonal antibody (8G6 mAb, IgG1, kappa) (antibody, V domains shown)
VH: DVQLQESGPGLVKPSQSLFLTCSVTGYSISSSYYWNWIRQFPGNKLEWMGYISFDGSNNYNPSLKNRISITRDTSKNQFFLKLNSVTTEDTATYYCAREKENYYGSSFYYFDYWGLGTSLTVSS
VL: DIQMTQSPASLSVSVGETVTITCRASENIYSNLAWYQQKQGKSPQVLVYAATNLADGVPSRFSGSGSGTQFSLKINSLQSEDFGNYFCQHFWRIPWTFGGGTKLEIK
notes: Murine IgG1, kappa purified from hybridoma supernatant; also called TRX585 antibody; TRX585 mAb
B1: binds.

From patent US20170158765A1 (Merck Sharp & Dohme, published 2017)
